Measurements reported in article PMC10458388 (2023).

Biological target: C-terminus of human Hsp90α (residues 566-732) (Homo sapiens (Human), UniProt P07900)
Test: SEC-MALS-QELS

C-terminus of human Hsp90α (residues 566-732), sequence (P07900 566-732): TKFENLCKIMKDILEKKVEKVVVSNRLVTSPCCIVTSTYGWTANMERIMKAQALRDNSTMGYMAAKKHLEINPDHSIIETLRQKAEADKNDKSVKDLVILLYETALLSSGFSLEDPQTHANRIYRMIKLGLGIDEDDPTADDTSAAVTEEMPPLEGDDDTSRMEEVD

binding result: binds
B1: Sorghum bicolor RPAP3 (RNA polymerase II-associated protein 3), isoform 2 (protein)
chain: MEYKARSSGTSGTSTKSFRDLYNMKYSSYLNDEPMPDATSEKEQGNEYFKQKKFADAIECYSRSIGLSPTAVTFANRAMAYLKLRRFKEAEDDCTEALNLDDRYIKAYSRRITARKELGKLKEAMEDAEFAISLDPNNPELRKQYSEIKALHMEKMAKKVPAPAKRAVSGIAKTADVTSHPPTISQKDTIMEVDPPVGDAMKIRESASGRSNGGSGVIINDNTIQTQGRDANLKPGPEVSVQDLAARAASRYMASTVKSVKTPKTAYDFEVSWRALSDDTAQQIQLLKSIPPASLPEIFKNALSAPFLIDIVKCSASIFRDDTALAVSILENLARVPRFDLIIMCLSSMHKSELRKIWDQVFLAEKASADDQMEALRQLRGRYIPGGWQDSMLTSS
